Experimental data: publication PMC7330677

How the values were obtained:
Human CXCR4 (human) = Human CXCR4 (human) (UniProt P61073)
CXCR4-FlAsH228 (human) = CXCR4-FlAsH228 (human) (UniProt P61073)

## Recombinant human CXCL12 (from UniProt P48061 22-93) (ligand)
Human CXCR4 (human)
  EC50 of CXCL12 for Gi1 activation, one representative experiment of Fig. 1D: 3.3 nM
CXCR4-FlAsH228 (human)
  EC50 of CXCL12 for Gi1 activation, one representative experiment of Fig. 1D: 14.7 nM
